Assay results taken from article PMC13397619.

B1: NLV3 TCR beta chain (CDR3β only) (parent)
chain: ASSPTGGSPSPLH

Variants of: B1
Assay: T-Switch: Jurkat TCRβ−/− cells expressing a CDR3 saturation-mutagenesis library, stained with two peptide-HLA-A*02:01 tetramers (original and novel peptide) plus anti-CD3, FACS-sorted into four gates, gDNA sequenced
Details: tetramers 1 µg/mL, 30 min on ice, SP, DP and SW gates expanded about 10 days between rounds ('two to three rounds of selection' in the Methods), unresolved parent, parent is a CDR3 fragment, scale: fold enrichment, numbering: sequential-on-construct, sequence starts at 1
[1] = with both tetramers (double-negative gate, binds neither): HLA-A*02:01 with … and with …, gate DN: OPPOSITE: higher = more of the variant in the gate that binds neither peptide = LESS binding (or no expression; inferred). Fold enrichment of the CDR3 variant in one FACS gate of a two-tetram
[2] = with both tetramers (double-positive gate): HLA-A*02:01 with … and with …, gate DP: higher = more of the variant in the gate that binds both peptides. Fold enrichment of the CDR3 variant in one FACS gate of a two-tetramer stain. SP/DP/SW gates were expanded and re-sorted bef

For […] (CDR3 as printed); A1P derived by comparing it with the table's wild-type CDR3 ASSPTGGSPSPLH, the enrichment [1] was 1.02 and the enrichment [2] was 0.

For […] (CDR3 as printed); L12R derived by comparing it with the table's wild-type CDR3 ASSPTGGSPSPLH, the enrichment [1] was 0.619 and the enrichment [2] was 0.

Variant […] (CDR3 as printed); P4H derived by comparing it with the table's wild-type CDR3 ASSPTGGSPSPLH has an enrichment [1] of 0.553 and an enrichment [2] of 0.

Variant […] (CDR3 as printed); A1T derived by comparing it with the table's wild-type CDR3 ASSPTGGSPSPLH has an enrichment [1] of 0.774 and an enrichment [2] of 0.

Work on […] (CDR3 as printed); L12P derived by comparing it with the table's wild-type CDR3 ASSPTGGSPSPLH yielded an enrichment [1] of 1.2 and an enrichment [2] of 0.

In the case of […] (CDR3 as printed); G7A derived by comparing it with the table's wild-type CDR3 ASSPTGGSPSPLH, the enrichment [1] is reported as 0.658 and the enrichment [2] is reported as 0.

For […] (CDR3 as printed); L12C derived by comparing it with the table's wild-type CDR3 ASSPTGGSPSPLH, the enrichment [1] was 0.764 and the enrichment [2] was 0.

For […] (CDR3 as printed); G6W derived by comparing it with the table's wild-type CDR3 ASSPTGGSPSPLH, the enrichment [1] was 1.44 and the enrichment [2] was 0.

In the case of […] (CDR3 as printed); G6C derived by comparing it with the table's wild-type CDR3 ASSPTGGSPSPLH, the enrichment [1] is reported as 0.841 and the enrichment [2] is reported as 0.

[…] (CDR3 as printed); A1E derived by comparing it with the table's wild-type CDR3 ASSPTGGSPSPLH gave an enrichment [1] of 1.07 and an enrichment [2] of 0.

[…] (CDR3 as printed); P9H derived by comparing it with the table's wild-type CDR3 ASSPTGGSPSPLH gave an enrichment [1] of 0.681 and an enrichment [2] of 0.

[…] (CDR3 as printed); G6D derived by comparing it with the table's wild-type CDR3 ASSPTGGSPSPLH gave an enrichment [1] of 0.99 and an enrichment [2] of 0.

Variant […] (CDR3 as printed); P4R derived by comparing it with the table's wild-type CDR3 ASSPTGGSPSPLH has an enrichment [1] of 0.618 and an enrichment [2] of 0.

[…] (CDR3 as printed); G7V derived by comparing it with the table's wild-type CDR3 ASSPTGGSPSPLH showed an enrichment [1] of 1.02 and an enrichment [2] of 0.

In the case of […] (CDR3 as printed); H13N derived by comparing it with the table's wild-type CDR3 ASSPTGGSPSPLH, the enrichment [1] is reported as 0.56 and the enrichment [2] is reported as 0.

In the case of […] (CDR3 as printed); L12V derived by comparing it with the table's wild-type CDR3 ASSPTGGSPSPLH, the enrichment [1] is reported as 0.702 and the enrichment [2] is reported as 0.

[…] (CDR3 as printed); L12D derived by comparing it with the table's wild-type CDR3 ASSPTGGSPSPLH showed an enrichment [1] of 0.327 and an enrichment [2] of 0.

In the case of […] (CDR3 as printed); A1N derived by comparing it with the table's wild-type CDR3 ASSPTGGSPSPLH, the enrichment [1] is reported as 1.07 and the enrichment [2] is reported as 0.

[…] (CDR3 as printed); G6P derived by comparing it with the table's wild-type CDR3 ASSPTGGSPSPLH was tested, and the enrichment [1] was 1.09 and the enrichment [2] was 0.

In the case of […] (CDR3 as printed); P4D derived by comparing it with the table's wild-type CDR3 ASSPTGGSPSPLH, the enrichment [1] is reported as 0.917 and the enrichment [2] is reported as 0.

Work on […] (CDR3 as printed); H13I derived by comparing it with the table's wild-type CDR3 ASSPTGGSPSPLH yielded an enrichment [1] of 0.602 and an enrichment [2] of 0.

[…] (CDR3 as printed); L12Q derived by comparing it with the table's wild-type CDR3 ASSPTGGSPSPLH showed an enrichment [1] of 0.615 and an enrichment [2] of 0.

[…] (CDR3 as printed); G7E derived by comparing it with the table's wild-type CDR3 ASSPTGGSPSPLH was tested, and the enrichment [1] was 1.08 and the enrichment [2] was 0.

Variant […] (CDR3 as printed); P4G derived by comparing it with the table's wild-type CDR3 ASSPTGGSPSPLH has an enrichment [1] of 0.753 and an enrichment [2] of 0.

In the case of […] (CDR3 as printed); A1I derived by comparing it with the table's wild-type CDR3 ASSPTGGSPSPLH, the enrichment [1] is reported as 1.15 and the enrichment [2] is reported as 0.

Work on […] (CDR3 as printed); H13V derived by comparing it with the table's wild-type CDR3 ASSPTGGSPSPLH yielded an enrichment [1] of 0.58 and an enrichment [2] of 0.

[…] (CDR3 as printed); P9A derived by comparing it with the table's wild-type CDR3 ASSPTGGSPSPLH showed an enrichment [1] of 0.394 and an enrichment [2] of 114.

Variant […] (CDR3 as printed); G6A derived by comparing it with the table's wild-type CDR3 ASSPTGGSPSPLH has an enrichment [1] of 0.582 and an enrichment [2] of 0.

[…] (CDR3 as printed); G6R derived by comparing it with the table's wild-type CDR3 ASSPTGGSPSPLH showed an enrichment [1] of 0.796 and an enrichment [2] of 0.

[…] (CDR3 as printed); P4E derived by comparing it with the table's wild-type CDR3 ASSPTGGSPSPLH was tested, and the enrichment [1] was 0.97 and the enrichment [2] was 0.

[…] (CDR3 as printed); P4N derived by comparing it with the table's wild-type CDR3 ASSPTGGSPSPLH was tested, and the enrichment [1] was 1.17 and the enrichment [2] was 0.

With […] (CDR3 as printed); G7N derived by comparing it with the table's wild-type CDR3 ASSPTGGSPSPLH the enrichment [1] was 0.87 and the enrichment [2] was 0.

Work on […] (CDR3 as printed); A1C derived by comparing it with the table's wild-type CDR3 ASSPTGGSPSPLH yielded an enrichment [1] of 1.24 and an enrichment [2] of 0.

[…] (CDR3 as printed); A1M derived by comparing it with the table's wild-type CDR3 ASSPTGGSPSPLH showed an enrichment [1] of 1.12 and an enrichment [2] of 0.

[…] (CDR3 as printed); A1G derived by comparing it with the table's wild-type CDR3 ASSPTGGSPSPLH was tested, and the enrichment [1] was 0.451 and the enrichment [2] was 0.

[…] (CDR3 as printed); A1Q derived by comparing it with the table's wild-type CDR3 ASSPTGGSPSPLH gave an enrichment [1] of 0.998 and an enrichment [2] of 0.

For […] (CDR3 as printed); G7T derived by comparing it with the table's wild-type CDR3 ASSPTGGSPSPLH, the enrichment [1] was 0.754 and the enrichment [2] was 0.

[…] (CDR3 as printed); G6K derived by comparing it with the table's wild-type CDR3 ASSPTGGSPSPLH showed an enrichment [1] of 1.4 and an enrichment [2] of 0.

In the case of […] (CDR3 as printed); H13D derived by comparing it with the table's wild-type CDR3 ASSPTGGSPSPLH, the enrichment [1] is reported as 0.745 and the enrichment [2] is reported as 0.

[…] (CDR3 as printed); P4C derived by comparing it with the table's wild-type CDR3 ASSPTGGSPSPLH was tested, and the enrichment [1] was 0.776 and the enrichment [2] was 0.

Variant […] (CDR3 as printed); H13R derived by comparing it with the table's wild-type CDR3 ASSPTGGSPSPLH has an enrichment [1] of 0.602 and an enrichment [2] of 0.

In the case of […] (CDR3 as printed); H13S derived by comparing it with the table's wild-type CDR3 ASSPTGGSPSPLH, the enrichment [1] is reported as 0.978 and the enrichment [2] is reported as 0.

In the case of […] (CDR3 as printed); L12Y derived by comparing it with the table's wild-type CDR3 ASSPTGGSPSPLH, the enrichment [1] is reported as 1.11 and the enrichment [2] is reported as 0.

With […] (CDR3 as printed); P4W derived by comparing it with the table's wild-type CDR3 ASSPTGGSPSPLH the enrichment [1] was 1.23 and the enrichment [2] was 0.

Variant […] (CDR3 as printed); P4F derived by comparing it with the table's wild-type CDR3 ASSPTGGSPSPLH has an enrichment [1] of 1.02 and an enrichment [2] of 0.

In the case of […] (CDR3 as printed); G7S derived by comparing it with the table's wild-type CDR3 ASSPTGGSPSPLH, the enrichment [1] is reported as 1.32 and the enrichment [2] is reported as 0.

[…] (CDR3 as printed); P9G derived by comparing it with the table's wild-type CDR3 ASSPTGGSPSPLH gave an enrichment [1] of 1.21 and an enrichment [2] of 0.

With […] (CDR3 as printed); A1S derived by comparing it with the table's wild-type CDR3 ASSPTGGSPSPLH the enrichment [1] was 1.25 and the enrichment [2] was 0.

[…] (CDR3 as printed); P9E derived by comparing it with the table's wild-type CDR3 ASSPTGGSPSPLH was tested, and the enrichment [1] was 0.929 and the enrichment [2] was 0.

Variant […] (CDR3 as printed); G6T derived by comparing it with the table's wild-type CDR3 ASSPTGGSPSPLH has an enrichment [1] of 1.01 and an enrichment [2] of 0.

For […] (CDR3 as printed); G7F derived by comparing it with the table's wild-type CDR3 ASSPTGGSPSPLH, the enrichment [1] was 1.02 and the enrichment [2] was 0.

Variant […] (CDR3 as printed); H13E derived by comparing it with the table's wild-type CDR3 ASSPTGGSPSPLH has an enrichment [1] of 0.868 and an enrichment [2] of 0.

[…] (CDR3 as printed); G6I derived by comparing it with the table's wild-type CDR3 ASSPTGGSPSPLH was tested, and the enrichment [1] was 1.08 and the enrichment [2] was 0.

[…] (CDR3 as printed); L12F derived by comparing it with the table's wild-type CDR3 ASSPTGGSPSPLH was tested, and the enrichment [1] was 1.49 and the enrichment [2] was 0.

Work on […] (CDR3 as printed); P9D derived by comparing it with the table's wild-type CDR3 ASSPTGGSPSPLH yielded an enrichment [1] of 0.994 and an enrichment [2] of 0.

[…] (CDR3 as printed); G6N derived by comparing it with the table's wild-type CDR3 ASSPTGGSPSPLH showed an enrichment [1] of 1.47 and an enrichment [2] of 0.

[…] (CDR3 as printed); A1V derived by comparing it with the table's wild-type CDR3 ASSPTGGSPSPLH showed an enrichment [1] of 0.797 and an enrichment [2] of 0.

Work on […] (CDR3 as printed); H13G derived by comparing it with the table's wild-type CDR3 ASSPTGGSPSPLH yielded an enrichment [1] of 0.702 and an enrichment [2] of 0.
